Measured values reported in patent US20100028995A1, “Tetranectin Trimerizing Polypeptides” (Anaphore, Inc., priority 2004, published 2010).

Legend:
[1] = test system: IL-1 induction of IL-8 in U937 cells; experiment: Inhibition of IL-1 induction of IL-8 in U937 cells; type: cell-based; conditions: based on several in vitro efficacy assays as well as Biacore assays
Procedure: GG-TripV-IL-1ra (Trip V-IL1Ra), GG-TripK-IL-1ra (Trip K-IL1Ra), GG-TripT-IL-1ra (Trip T-IL1Ra) and CII-H6-GrB-GG-TripT-IL-1ra (Trip Q-IL1Ra) were further analysed for their ability to inhibit IL-1 induction of IL-8 in U937 cells.
Due to buffer effects in the assay, at the highest protein concentration used (100 μg/mL) IL-8 production increases instead of further decreasing. Based on several in vitro efficacy assays as well as Biacore assays, it was determined that TripT IL1Ra was the best compound based on blocking and binding efficacy as well as production yields.
Three of the trimeric IL1Ra polypeptides described in the previous examples were chosen for pharmacokinetic analysis. The differences in the constructs were in the N-terminus of the trimerization domain: full length (FL), first nine amino acids truncated (I10) and the first 16 amino acids truncated (V17). The 10 construct represents a naturally occurring deletion variant of the trimerization domain and lacks the O-glycosylation site at Thr 4. The V17 derivative represents a deletion of the first exon encoding the trimerization domain and lacks a characterized heparin binding site. This site is also partially removed in the I10 construct.

[2] = Pharmacokinetic analysis of trimeric IL1Ra proteins in male Lewis rats after i.v. injection (plasma ELISA); type: in vivo; conditions: for AUC / AUC protein/AUC KINERET ® / Half life / Half life protein/Half life KINERET ® / relative increase in AUC compared to KINERET: rat, in vivo, iv, 100 mg/kg; for half life after i.v. injection: single i.v. dose 100 mg/kg
Procedure: The pharmacokinetic profile of these three constructs polypeptides were analysed in Lewis rats after intravenous (i.v.) injections. The profiles obtained were compared to the pharmacokinetic profile of KINERET® in the same experiment. The pharmacokinetic study was conducted using four male Lewis rats per group, and the constructs that were used were FL IL-1Ra, I10 IL-1Ra, V17 IL-1Ra and KINERET®, Single i.v. doses of 100 mg/kg were given to the animals. The test compound was dissolved in vehicle (4.4 mM NaCitrate, pH 6.5, 93.8 mM NaCl, 0.33 mM EDTA, 0.7 g TWEEN®-80) and administered through the tail vein (vena sacralis media) or the hind paw vein (vena saphena).
Blood was then collected from four animals per time-point at baseline (zero hours) and 0.5, 1, 2, 4, 8, 12, 24, 48, 72 h post dosing. Blood samples of approximately 100 μl were collected from the tip of the tails in Microtainers™. Plasma was collected and transferred into polypropylene tubes. Plasma samples were then stored at <−70° C. until measurements were performed. Animals were then sacrificed by CO2 inhalation and the carcasses were discarded without pathological examination. The IL-1Ra compound levels and KINERET® levels in plasma were then determined by ELISA.
The average body weight of each rat was 250 grams. Assuming that the rat average blood volume was 16.5 mL a theoretical maximum initial concentration of the compounds of 1,500,000 ng/mL was calculated after i.v. injection. This starting level was used as starting value for the analysis. No observations of side effects or changes in animal well being were observed.
Following blood sampling at the above indicated time points, an ELISA assay was used to measure the injected protein in the blood samples. Based on these ELISA results, area under the curve (AUC) was used as a measure of drug exposure and the plasma half life were calculated using standard software.

[3] = test system: STZ-induced diabetes; experiment: Streptozocin (STZ)-induced diabetes model; type: in vivo, C57BL/6J male mice; conditions: for reduction of blood glucose levels: daily i.p. dosing at both 100 and 30 mg/kg, FIG. 12
Procedure: STZ (Sigma Aldrich) was administered once daily for five successive days at 50 mg/kg i.p. to fasted C57BL/6J male mice. The mice gradually developed higher levels of blood glucose from Day 1 to Day 4. The levels rose from […] during the STZ induction period. Five days (Day 4) after the last STZ dosing, the mice were randomly distributed into 10 treatment groups each containing 10 mice in good condition. Treatment started on this day, before onset of diabetes and continued beyond the onset.
The study period was 28 days and the mice were weighed once weekly during the treatment period. Blood glucose levels were measured every other day during the study period in order to monitor development of diabetes. A droplet of whole blood was collected by tail vein bleeding and placed on an Ascensia ELITE® blood glucose test strip and analyzed with an Ascensia ELITE® blood glucose meter (Bayer). The values were recorded, and x-fold increase in any given group compared to levels at treatment initiation was calculated. Clinical symptoms were observed daily or as appropriate in groups where adverse symptoms occurred.

[4] = in vivo; cited from earlier work
[5] = test system: type II collagen arthritis; type: in vivo, Female Lewis rats
Procedure: Female Lewis rats with 4-day established type II collagen arthritis were treated subcutaneously (SC), daily (QD) on arthritis days 1-3 with Vehicle (10 mM phosphate buffer pH 7.4), or equimolar amounts of IL-1ra administering either monomeric IL-1ra (100 mg/kg KINERET®), or trimerized IL1ra (120 mg/kg Met-I10-TripT-IL1ra, or 120 mg/kg GG-V17-TripT-IL1ra). In order to have only one set of controls, all rats in the QD groups were dosed with the respective vehicle (10 mM phosphate buffer pH 7.4, or sodium citrate buffer pH 6.5 for KINERET®) at the 2nd and 3rd dosings to keep manipulations constant. Animals were terminated on arthritis day 4. Efficacy evaluation was based on ankle caliper measurements, expressed as area under the curve (AUC), terminal hind paw weights and body weights (Bendele et al 2000, Arthritis+Rheumatism 43:2648-2659). All animals survived to study termination. […] No vocalization occurred with any other injections.
Animals (8/group for arthritis, 4/group for normal), housed 4/cage, were anesthetized with Isoflurane and received subcutaneous/intradermal (SC/ID) injections with 300 μl of Freund's Incomplete Adjuvant (Difco, Detroit, Mich.) containing 2 mg/ml bovine type II collagen (Elastin Products, Owensville, Mo.) at the base of the tail and 2 sites on the back on days 0 and 6. Dosing by subcutaneous route (QD at 24 hour intervals) was initiated on arthritis day 1 and continued through day 3.
Rats were weighed on days 0-4 of arthritis, and caliper measurements of ankles were taken every day beginning on day 0 of arthritis (study day 9). After final body weight measurement, animals were euthanized, and hind paws were transected at the level of the medial and lateral malleolus and weighed (paired).

[6] = SC QD days 1-3, 100 mg/kg KINERET, 120 mg/kg trimerized IL1ra, vs vehicle treated disease controls

Substance	blocking and binding efficacy [1]	AUC [2]	AUC protein/AUC KINERET ® [2]	Half life [2]	Half life protein/Half life KINERET ® [2]	relative increase in AUC compared to KINERET [2]	reduction of blood glucose levels [3]	blood glucose efficacy relative to daily dosing of 100 mg/kg KINERET ([3]; twice weekly i.p. dosing of 100 mg/kg)	half life in humans [4]	Change in body weight increased toward normal [5, 6]	Reduction of ankle diameter AUC [5, 6]	Reduction of final paw weight [5, 6]	vocalization during the injection process (subcutaneous irritation) ([5]; rat, in vivo, sc)	half life after i.v. injection [2]
FL IL1Ra: trimeric IL1Ra polypeptide with full length (FL) trimerization domain, TripT fusion to IL-1Ra (SEQ ID NO: 24)	best compound	809.292 µg·h/mL	1.89	20 min	17	two-fold	–	–	–	–	–	–	–	–
I10 IL1Ra: trimeric IL1Ra polypeptide, first nine amino acids of the trimerization domain truncated (I10), TripT fusion (SEQ ID NO: 28)	–	1637.866 µg·h/mL	3.82	54 min	45	–	marked reduction	equally effective	–	–	–	–	–	–
KINERET®: monomeric IL-1ra [reference compound]	–	428.414 µg·h/mL	1	1.2 min	1	–	marked reduction	–	240 to 360 min	54%	34%	61%	vocalized during the injection process	about 1.2 minutes
V17 IL1Ra: trimeric IL1Ra polypeptide, first 16 amino acids of the trimerization domain truncated (V17), TripT fusion (SEQ ID NO: 32)	–	2177.781 µg·h/mL	5.08	69 min	58	five-fold	–	–	–	–	–	–	–	about 69 minutes
